These results are taken from paper PMC8625570, “Selectivity Determinants of RHO GTPase Binding to IQGAPs” (International Journal of Molecular Sciences, 2021).

First the molecules themselves.
B1: IQGAP2^C795 (C-terminal fragment of IQGAP2) (domain or fragment, human, UniProt Q13576 780-1575, looked up)
chain: PLTVIRKFVYLLDQSDLDFQEELEVARLREEVVTKIRANQQLEKDLNLMDIKIGLLVKNRITLEDVISHSKKLNKKKGGEMEILNNTDNQGIKSLSKERRKTLETYQQLFYLLQTNPLYLAKLIFQMPQNKSTKFMDTVIFTLYNYASNQREEYLLLKLFKTALEEEIKSKVDQVQDIVTGNPTVIKMVVSFNRGARGQNTLRQLLAPVVKEIIDDKSLIINTNPVEVYKAWVNQLETQTGEASKLPYDVTTEQALTYPEVKNKLEASIENLRRVTDKVLNSIISSLDLLPYGLRYIAKVLKNSIHEKFPDATEDELLKIVGNLLYYRYMNPAIVAPDGFDIIDMTAGGQINSDQRRNLGSVAKVLQHAASNKLFEGENEHLSSMNNYLSETYQEFRKYFKEACNVPEPEEKFNMDKYTDLVTVSKPVIYISIEEIISTHSLLLEHQDAIAPEKNDLLSELLGSLGEVPTVESFLGEGAVDPNDPNKANTLSQLSKTEISLVLTSKYDIEDGEAIDSRSLMIKTKKLIIDVIRNQPGNTLTEILETPATAQQEVDHATDMVSRAMIDSRTPEEMKHSQSMIEDAQLPLEQKKRKIQRNLRTLEQTGHVSSENKYQDILNEIAKDIRNQRIYRKLRKAELAKLQQTLNALNKKAAFYEEQINYYDTYIKTCLDNLKRKNTRRSIKLDGKGEPKGAKRAKPVKYTAAKLHEKGVLLDIDDLQTNQFKNVTFDIIATEDVGIFDVRSKFLGVEMEKVQLNIQDLLQMQYEGVAVMKMFDKVKVNVNLLIYLLNKKFYGK
notes: IQGAP2, aa 780-1575; also called IQGAP2^C975
B2: CDC42 (aa 1-178) (natural protein)
chain: not shown
B3: IQGAP1^C794 (C-terminal half of human IQGAP1 with the GRD, RGCT and CT domains) (domain or fragment, UniProt P46940 863-1657, looked up)
chain: DPPMVVVRKFVHLLDQSDQDFQEELDLMKMREEVITLIRSNQQLENDLNLMDIKIGLLVKNKITLQDVVSHSKKLTKKNKEQLSDMMMINKQKGGLKALSKEKREKLEAYQHLFYLLQTNPTYLAKLIFQMPQNKSTKFMDSVIFTLYNYASNQREEYLLLRLFKTALQEEIKSKVDQIQEIVTGNPTVIKMVVSFNRGARGQNALRQILAPVVKEIMDDKSLNIKTDPVDIYKSWVNQMESQTGEASKLPYDVTPEQALAHEEVKTRLDSSIRNMRAVTDKFLSAIVSSVDKIPYGMRFIAKVLKDSLHEKFPDAGEDELLKIIGNLLYYRYMNPAIVAPDAFDIIDLSAGGQLTTDQRRNLGSIAKMLQHAASNKMFLGDNAHLSIINEYLSQSYQKFRRFFQTACDVPELQDKFNVDEYSDLVTLTKPVIYISIGEIINTHTLLLDHQDAIAPEHNDPIHELLDDLGEVPTIESLIGESSGNLNDPNKEALAKTEVSLTLTNKFDVPGDENAEMDARTILLNTKRLIVDVIRFQPGETLTEILETPATSEQEAEHQRAMQRRAIRDAKTPDKMKKSKSVKEDSNLTLQEKKEKIQTGLKKLTELGTVDPKNKYQELINDIARDIRNQRRYRQRRKAELVKLQQTYAALNSKATFYGEQVDYYKSYIKTCLDNLASKGKVSKKPREMKGKKSKKISLKYTAARLHEKGVLLEIEDLQVNQFKNVIFEISPTEEVGDFEVKAKFMGVQMETFMLHYQDLLQLQYEGVAVMKLFDRAKVNVNLLIFLLNKKFYGK

In series [1] the target is T1, RAC2 (aa 1-192) (human, UniProt P15153 1-192). In words: stopped-flow fluorescence spectrometry; association (kobs): 2 µM IQGAP1^C794 or IQGAP2^C795 mixed with 0.2 µM mGppNHp-bound RHO GTPase; 30 mM Tris-HCl pH 7.5, 10 mM K2HPO4/KH2PO4 pH 7.4, 2 mM MgCl2, 3 mM DTT, 25 °C. The settings on record: both partners purified.
Series [2] addresses T2, RAC3 (aa 1-192) (human, UniProt P60763 1-192). The description is as above. To be noted: both partners purified.
In series [3] the target is T3, RAC1 (aa 1-179) (human, UniProt P63000 1-179). In words: SEC; analytical SEC, Superdex 200 10/300, 30 mM Tris/HCl pH 7.5, 150 mM NaCl, 5 mM MgCl2; IQGAP1^C794 and IQGAP2^C795 alone or mixed with CDC42•GppNHp or RAC1•GppNHp; fractions on Coomassie-stained SDS-PAGE; MW from a calibration curve. Also on record: reference not given here. The settings on record: both partners purified. On the technique in general: SEC sorts molecules by how far they enter the pores of the column.

Series [4] has as its target B2. The series is described as above. The settings on record: both partners purified. Also noted: reference not given here.
Series [5] concerns the molecule itself. The series is described as above. Also noted: reference not given here.
The target of series [6] is B3. In words: stopped-flow fluorescence spectrometry; association (kobs): 2 µM IQGAP1^C794 or IQGAP2^C795 mixed with 0.2 µM mGppNHp-bound RHO GTPase; 30 mM Tris-HCl pH 7.5, 10 mM K2HPO4/KH2PO4 pH 7.4, 2 mM MgCl2, 3 mM DTT, 25 °C. The settings on record: both partners purified.
Series [7] addresses B1. The description is as above. The settings on record: both partners purified.
Series [8] deals with T1, RAC2 (aa 1-192). Nature of the series: stopped-flow fluorescence spectrometry; kon from 0.2 µM mGppNHp-bound RHO GTPase with 2-8 µM IQGAP1^C794; koff by displacing with 10 µM unlabeled RAC1-GppNHp from 2 µM IQGAP1^C794 with 0.2 µM GTPase; Kd calculated from the rate constants; 25 °C. To be noted: both partners purified.
The target of series [9] is RAC1 M45E/N52E (human, UniProt P63000 1-179, M45E | N52E). The series is described as above. To be noted: both partners purified.
Series [10] addresses T2, RAC3 (aa 1-192). Described as above. To be noted: both partners purified.
The target in series [11] is RAC1 Q74D (human, UniProt P63000 1-179, Q74D). Described as above. To be noted: both partners purified.
In series [12] the target is RAC1 T25K/N26D (human, UniProt P63000 1-179, T25K | N26D). Described as above. To be noted: both partners purified.
The target in series [13] is B2. The series is described as above. To be noted: both partners purified.
In series [14] the target is T3, RAC1 (aa 1-179). Nature of the series: cell-based or functional assay.

Values joined by “and” are separate entries in the source; they are usually repeats but may differ in a detail not shown here. Equal values may be shown once.

A word on the stoichiometry N: it is a count of units in the complex or per binding partner. With B1, the binding result in series [1] and in series [2] was “binds” in each case. For the same molecule, the “stoichiometry N” value in series [3] is 1 IQGAP per GTPase (printed as 2:2); in [4], 1 IQGAP per GTPase (printed as 2:2); in series [5], 3 and 4.

Regarding B2, the binding result in [6] and in [7] was “binds” each time. The “stoichiometry N” value in series [5] was determined as 2.

The term Kd denotes the equilibrium constant for the complex coming apart. Take B3: in [8], the equilibrium dissociation constant (Kd) was 27 nM. The “fold faster kon than with RAC1” value in series [8] was 4 fold. Also, the “fold lower Kd than with RAC1” value in series [8] was 34 fold. For the same molecule, the “fold lower koff than with RAC1” value in series [8] was 8 fold. Further, the binding result in series [9], in series [10], in [11] and in series [12] was “binds” in each case. Besides, the “fold higher binding affinity than with RAC1” value in series [13] is 3 fold. Besides, the “p50^GAP-stimulated GTP hydrolysis of tamraGTP-bound RAC1 (0.2 µM RAC1, 10 µM p50^GAP) in the presence of IQGAP1^C794” value in series [14] stood at 25 fold. For the same molecule, the “stoichiometry N” value in [3] was 1 IQGAP per GTPase (printed as 2:2); in series [4], 1 IQGAP per GTPase (printed as 2:2); in [5] it was 2.
